{"source": "paper PMC2367712", "about": "(Nucleic Acids Research, 2008)", "proteins": {"B1": {"name": "Lsr2 of M. tuberculosis, recombinant, His-tagged at the C-terminal (natural protein)", "chain": "not shown"}}, "biological_target": "the molecule itself", "assay": "cross-linking", "data": [{"protein": "B1", "values": [{"measurement": "stoichiometry N", "result": 2}]}]}
